Data as given in patent publication US20020062008A1.
One block for each substance: values may come before it.

Columns and labels:
[1] = target: two domain VCAM-1/Fc with substitution at residue 40 (UniProt P19320); assay: adhesion of αdβ2 CHO cells to immobilized mutant VCAM-1/Fc
[2] = target: LFA-1 leucine zipper fusion protein (soluble CD11a/CD18) (UniProt P20701); assay: ELISA as printed: αd/CD18 and immobilized CD11a/CD18
[3] = target: immobilized CD11b/CD18 (UniProt P05107); assay: ELISA as printed: αd/CD18 and immobilized CD11b/CD18
[4] = target: soluble ICAM-R/IgG1 fusion protein (UniProt P32942); assay: ELISA, soluble integrin supernatant on immobilized ICAM-R/Ig, non-blocking antibody detection
[5] = target: recombinant VCAM-1 (commercial preparation, R & D Systems), immobilized (UniProt P19320); assay: cell-based or functional assay
Chain of recombinant VCAM-1 (commercial preparation, R & D Systems), immobilized (P19320 25-698 limits assumed): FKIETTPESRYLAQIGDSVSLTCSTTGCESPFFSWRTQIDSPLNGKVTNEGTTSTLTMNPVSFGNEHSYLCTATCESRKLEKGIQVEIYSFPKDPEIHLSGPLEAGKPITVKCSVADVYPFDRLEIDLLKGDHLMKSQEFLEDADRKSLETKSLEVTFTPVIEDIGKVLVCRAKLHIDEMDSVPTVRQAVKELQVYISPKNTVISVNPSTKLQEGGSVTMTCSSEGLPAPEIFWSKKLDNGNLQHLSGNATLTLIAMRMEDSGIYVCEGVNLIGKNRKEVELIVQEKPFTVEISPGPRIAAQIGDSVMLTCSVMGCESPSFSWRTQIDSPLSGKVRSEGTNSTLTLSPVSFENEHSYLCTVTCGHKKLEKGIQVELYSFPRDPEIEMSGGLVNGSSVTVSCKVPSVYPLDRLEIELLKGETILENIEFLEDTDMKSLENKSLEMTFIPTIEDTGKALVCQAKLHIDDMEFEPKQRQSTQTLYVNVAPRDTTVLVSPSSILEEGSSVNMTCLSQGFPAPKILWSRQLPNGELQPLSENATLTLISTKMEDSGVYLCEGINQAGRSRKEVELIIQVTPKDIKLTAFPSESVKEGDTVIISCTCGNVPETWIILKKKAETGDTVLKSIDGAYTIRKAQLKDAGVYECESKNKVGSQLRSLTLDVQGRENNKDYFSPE

Chain of two domain VCAM-1/Fc with substitution at residue 40 (P19320 25-220): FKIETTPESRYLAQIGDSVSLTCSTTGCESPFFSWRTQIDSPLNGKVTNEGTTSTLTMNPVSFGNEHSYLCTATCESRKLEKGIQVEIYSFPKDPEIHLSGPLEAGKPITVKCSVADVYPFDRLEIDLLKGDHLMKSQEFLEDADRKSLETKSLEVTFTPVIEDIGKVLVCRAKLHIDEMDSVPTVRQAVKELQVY
Chain of soluble ICAM-R/IgG1 fusion protein (P32942 30-485 limits assumed): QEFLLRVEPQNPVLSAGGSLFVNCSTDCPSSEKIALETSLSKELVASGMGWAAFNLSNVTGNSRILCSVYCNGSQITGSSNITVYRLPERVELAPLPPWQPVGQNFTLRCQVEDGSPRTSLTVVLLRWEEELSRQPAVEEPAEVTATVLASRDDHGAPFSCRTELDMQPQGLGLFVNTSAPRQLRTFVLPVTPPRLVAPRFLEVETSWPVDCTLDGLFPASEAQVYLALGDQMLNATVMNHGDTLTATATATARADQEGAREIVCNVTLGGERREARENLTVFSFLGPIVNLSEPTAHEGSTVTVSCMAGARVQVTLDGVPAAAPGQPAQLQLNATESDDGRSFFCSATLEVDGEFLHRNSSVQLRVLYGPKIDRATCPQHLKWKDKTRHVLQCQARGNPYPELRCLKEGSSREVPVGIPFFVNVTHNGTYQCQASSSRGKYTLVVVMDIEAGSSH

binding relative to wild-type VCAM-1 [1]: 50%
Substance: human αd/CD18 heterodimer expressed on transfected cells (COS, CHO, JY) (from UniProt P05107 23-769) (receptor)

fold greater than background binding [2]: 5 fold
fold greater than background binding [3]: 15 fold
fold greater than control well [4]: 10 fold
Substance: soluble human αd/CD18 leucine zipper heterodimer (from UniProt P05107 23-700) (receptor)

binding rate of IL-5 cultured eosinophils to immobilized VCAM-1 in the presence of a monoclonal antibody against α4 [5]: 18.1%
Substance: α4 integrins on human eosinophils (from UniProt P13612 34-1032; P05556 21-798) (receptor)
